Assay results from the DeepSol protein solubility set.

assay: soluble on expression in E. coli; label from the status in PepcDB or PDB records

Row | Sequence | soluble on expression in E. coli
1 | MGSDKIHHHHHHMKVKWSRDFSIKNMQLDKQHELIFEITNLANDLALNIQDNNTQHKNDLKQILVKLFQYIKIHFKDEEKFMESIDFPLIEEHKKSHQILVEKTKELLEHSNDIVKMSQELSILTKDWILDHFANEDLWIANFTKKTLHLQEIHYTLEQYIKLKSIKQDLRAEKTYDYICNCSLRIHAVPQTIHQELVSKENTLKCEKCGQILVHLDYFDLNQNFEKFNAIFEDALQNHHFTTQENDMRGGG | not soluble
2 | MVAVIIKGNEVAEKKRAQLKEEVVKLKEQGIVPGLAVILVGEDPASRSYVKGKEKGCEQVGIYSELIEFPETITEERLLAEIDRLNGDDRINGILVQLPLPKHIEEKAIIERISPEKDVDGFHPISVGRMMTGQDTFLPCTPHGIVELVKETNLDISGKHVVVIGRSNIVGKPVGQLFLNENATVTYCHSKTQNMKELTKLADILIVAVGRPKMVTADYIKEGAVVIDVGVNRLETGKLCGDVDFDNVLDVASYITPVPKGVGPMTITMLLHNTVESAKRAGVVCK | not soluble
3 | MSLAMINDSIEQVWRDFSIRPAAEADDATWCRRVYLDVIGRIPSLEELSEFMSDRDSNKRANLVDRLLNDDRYTEEYANHWSTVWTNLLIGRSGGTDRRDLTNRTGMQKYLRDSFAGNKTYDQMTYELVTAEGSTTPGNANFNGAVNFLVDKVNAEKGTLATSSVSRIFLGQQVQCTQCHNHPFNQWKQQKFWEFNAFFRQTRALRRFVDGTQDIESAELVSQDFAGEANDPEDALVFYELRNGLQKVAYPVFTDGTEIEKSGFVEDVNRREELGRLMLQSEYLDKMIVNRMWSMFLGYGFTRPIDDLGPHNPSSHPELLENLGKEFRANSYDLKKLITWITLSRPYQLASTLSASNEIDDPTIGESPKFSRFYLRQMSAEQLYASMVTASNAQSKGSYEQQEAERRRWLSQFVVAFGNDEGTETTTFNGSIPQALMLFNGDLTKNAISLEAGSFLDQLSQTGRSPKDRVTRLFLSGLARRPTKNEVSIASKLLVARKGDEPEMLQDMWWAILNSNEFIMQHEGHHHHHH | soluble
4 | MGSDKIHHHHHHMSTTASIENIDYWRHPSLSGIELSQAEFTHFSFDKHVHLDYHLGVVTQGAQQFVNKGSYYQLGQHSLSTLNPDDTHDGQSRDAEGYRVKVMSIPVEYMNEVSQELGLKEHFFSAPMVDDALLYHYFIHLHELLIQGQVTALASESHLFNFIQLLLRRHPSGILKCNSPQGLSTLQLGLVKQRMHDEPWHNTQLETLAGEVNLSKFQFLRQFKQATGMTPHAYLKRVRLELAKKSLCHGTLVADVAQQLGFFDQSHLNKAFKQAFLLSPVQFQRRML | not soluble
5 | FYGEKATLNDGKLTSAELSQMTISGEKHVTEEEFGYCTEYVLKLGMSVSQEVEKQKFNQKKFESKVSKIATSVVVASDKDNGFVKVHAHTEKPNLLLELGLNYGEFELVKIENMNLQVAKQKPAPVKRNIKPAIVVTVPTEAFADRIREDYDIQAILCTDDTGAPSVFSLLEAVKLTHSSNIIFLLHDKNYFLSANEALKQLKHQKISADCVMTTNPIESLAALTVFNSDLNIHTNVKTMRRFVKGFASATITQASKKYKENRIEVNKGDFIAVANNSICVSEKELVQCVFNTIDHLLKKVKKPEFLLAYYGKDITAEEAEAMKEKIEKKYKLFCEFSPGEQKVFSYILGIQ | soluble
6 | MGSSHHHHHHSSGRENLYFQGMPSLTPRCIIVRAGQTEWSKSGQYTGLTDLPLTPYGEGQMLRTGESVFRNNQFLNPDNITYIFTSPRLRARQTVDLVLKPLSDEQRAKIRVVVDDDLREWEYGDYEGMLTREIIELRKSRGLDKERPWNIWRDGCENGETTQQIGLRLSRAIARIQNLHRKHQSEGRASDIMVFAHGHALRYFAAIWFGLGVQKKCETIEEIQNVKSYDDDTVPYVKLESYRHLVDNPCFLLDAGGIGVLSYAHHNIDEPALELAGPFVSPPEEESQHGDV | soluble
7 | MALPKTGYTKTTADNFVIDSATVFTDFKYDKEKEEFTGIPMGATSGGVEIKTELSYRKVEVDGAYIMDVVGLNVLESATATMKANLIELTAENLRRSLNATMTDATTDEAPAGYKIIKPKRYLEEGDYIPNMAVVGIHNGTKQPIIVALDNGLVKSGLEIKTEDGKEVVIEQEITANASYEQLINDEFPFRIYYPSTSKNPIELTESL | not soluble
8 | MSLKSKPVFRLVVAATGLCALPTWADGWPSWSPETAVVPYYFVSDSMGNTLGVAGLAKHVGQANASVLGTALYSDKGSYVTYLSATNYQVGDFWLLGAESYQGKFVDYDYYLGANASNDSTAADRTIATGKESITRFSFRYIVPWGHAAFRGARAALEPTRQIKGFSPDRSGITTIEFQPFHTSREINAIAGQDSDSSGLSLKLDWDNRNDVRNPTQGFRTRLDITYADENWGNDSDWLKYEYSSSGFWNLGGVDDLLDQQVFAFNFYIADTPTWNNCNTQTCQRPPEFDQVSLGGLYRLRSFSSGRFHGKSAINYSAEYRVLPKWQPLDDIPVLNIYDIPWWQWVAFVDMGRVSDESSFSELHSDMQWSAGGAVRFQVEGIVVRAEMAWGSEESLFRVMVNQEGHHHHHH | not soluble
9 | MEDGDSAEAFRAFAAGVALQREDPSPLWVQLKNRIEHAILDGTLPENARLPSEQAMCSMFDLSRPVIRNALQALAGEGRVIKQPRKGMFVAPRAPELAFMTSALGVFDDLSAKGYKVTVKTYEFGLHPANEDERRVFKLPEGFQVIRALRVYHANETPLTHTLISLPAHRLPGFEKLDMEGRSIFGTIRELYGLTVARADRWLKGAIVPPEVAARMGVPPGGAMIAIESVAYDHDGNALEYYRAYYNSEVAPIHVATDAH | not soluble
10 | MASDTPGFYMDKLNKYRQMHGVAITYKELSTSGPPHDRRFTFQVLIDEKEFPEAKGRSKQEARNAAAKLAVDILDNENKVDCHT | soluble
11 | SEENEEEEELRPTALYTVGGSDEFTFVSPDGLSGQYTGPDHDGVVLQTENPAPTNCLAYYFEVHIMNAGEKGEIAIGFSKEHIYSEGYTVRSCAYIGNSGLICSQNGDGDRTVAKASDTYTTGDLVGCGIDSVSQEFFFTKNGTIVGTIPRQFRRPVYPTIVLHSQNEAVTVNFGGQIAFSFDFEVRSYFSFLA | soluble
12 | MGSDKIHHHHHHMPVMFQQMQYFIAIVNNHSFTQAAVDCHISQSAISQQMKELESQLGVKLLNRKGRSFEVTEAGQYFYIHSQDILADVDQLIKKTIKIEKNDEVELRVGYLRSFGTAEFLQTVSKFTQEFPKVKIKISSGTHEELYELLQTGKIDLNFSDQRRALSNEYQNEFLTASEFMVAVNNSLPVETQKIDVADLVDIPCILIIDGHQQVSEEEYYRNVLGVKSEFVIAKSYDEAQMLIASNQGYLIINQRMRTQLDKDIVKMISLVKGDRKLIQNYYAYWQANNSGYYIETFAELLKQTFA | not soluble
13 | MGHHHHHHSHMLKIIRAGMYTTVQDGGRHGFRQSGISHCGALDMPALRIANLLVGNDANAPALEITLGQLTVEFETDGWFALTGAGCEARLDDNAVWTGWRLPMKAGQRLTLKRPQHGMRSYLAVAGGIDVPPVMGSCSTDLKVGIGGLEGRLLKDGDRLPIGKSKRDSMEAQGVKQLLWGNRIRALPGPEYHEFDRASQDAFWRSPWQLSSQSNRMGYRLQGQILKRTTDRELLSHGLLPGVVQVPHNGQPIVLMNDAQTTGGYPRIACIIEADMYHLAQIPLGQPIHFVQCSLEEALKARQDQQRYFEQLAWRLHNEN | not soluble
14 | MGSDKIHHHHHHMSKRKLTTKFEEEPLNFGTGMWNVGLTPNVCRCTLLLPTSCMTCLVGTGRTASGRWPATYVPFDESAISELKRYASFIAISNHSDLLSDPSGSRRFICINITGRIRNGVAINYLQPYAQAVQELREGECFYFSPEEEAVLMENNQEFELQTPVGHLFQQYFRSADEGEKCETLLAVDILGRIQKKSGFKLSATKIVHLGRILRKLGVPCKKMKNGNFYCVVEL | not soluble
15 | MVGRELFKPVPSSTKPQSNASILARFRTAKSRHQPDRRGAQISANDRKSFVTRETPRTDSCFVSERLAMDDLVQIARCAGGKSVLRLTGVCLLTLLFAIASPAHSTHRPVDDLADVDLQLILAVDVSPSMSKVEQKVQRDGYVGAFRHADIARALKSGERGRIAVLYLEWAGPRQQTVVMPWTIVESLDDALILADRLAALPLTEGRGTSISGALSAAHALFAKSGLRSPRRVIDVSGDGPNNAGLPLQLVHDALTTGGVTINGLAISLRAADTLDSFGPHFIELYYESCVIGGSNAFVVTVENTADFANAIRKKLVNEIAGLSAKVQPATYRSHSRPVVLEHHHHHH | soluble
16 | MGSDKIHHHHHHMEKLQESMYQLIVETSTNLPNDVRRAIAEAKAKENAGTRAALSLSTITENIKMADENISPICQDTGMPTFEIKVPVGVNQIEMKKAIYAAIEQATKDGKLRPNSVDSLTGKNSGNNLGEGTPVIHFEQWEEDYIDARLILKGGGCENKNIQYSLPAELEGLGRAGRDLDGIRKCIMHSVYQAQGQGCSAGFIGVGIGGDRTTSYSLAKEQLFRKVDDVNPNDDLRKLEEYVLENANKLGIGTMGFGGEATLLGCKVGAMNRLPASFFVSVAYNCWAFRRLGVELDAETGEIKKWLYKDGERVDLNEVASQVAATAETTEVREVVLEAPVTEEQIRELKVGDVVIINGMLHTGRDAIHHHLMDHDAPIDLDGQIIYHCGPVMLQDDAGEWHVKAAGPTTSIREEPYQGDIMKKFGIRAVIGKGGMGPKTLKALQEHGGVYLNAIGGAAQYYADCIKKVKGVDLMEFGIPEAMWHLEVEGFAAIVTMDSHGNSLHEDVDKSSLEKLEQFAEKVF | not soluble
17 | MGSDKIHHHHHHMVKVVKFGGSSLASAEQFTKVGDIIRSDESRKYVVPSAPGKRNSKDTKVTDMLYACYDLAENDQDFKVMLRKIKDRYDSIINGLHLKLALDEEFKIIAENFKAKAGADYAASRGEYLNGIIMANYLGYEFIDSATVIFFDENGNFDAEKTDKVLSKKLEQTEKAVIPGFYGAGPDGKVVTFSRGGSDITGSIVSKACHASMYENWTDVSGCLVADPRIIDNPQPIKVVTYRELRELSYMGASVLHEDAVFPVRKAGIPINIRNTNDPEAPGTLIVESTCQKPDYTITGIAGKKGFVAVNIDKDKMNSEVGFCRKALQAFEENGISIEHMPSGIDTMTVFVHQAEFEGKEQQVISSIRRLAHPDIIDLESDLALIAVVGRGMKSNRGTAGRIFSALAHANINVRMIDQGSSELNIIIGVSNDDFDKAIKAIYDIFVVTQL | not soluble
18 | MGERADTFLAHFNRIEKWMRERLNNPVNMGFSEMTRRLSRKEKGQIAQFEEDLLQMAQLRNAIVHERIADDFVIAEPNEWAVQRIETIEQALTKPEKVVPKFAKRVTAFEITTSLETLLTIIAKKQYSQFPIYEKGVFKGLITVRGIGVWFAIESTKGEVHIANRTVRELLASNYKRSNYQFVSIEATVFEVEQMFREQPRLEAVLISKSGHPNGELVGIVRPRDLASIHREKE | not soluble
19 | GLLDLKSMIEKVTGKNALTNYGFYGCYCGWGGRGTPKDGTDWCCWAHDHCYGRLEEKGCNIRTQSYKYRFAWGVVTCEPGPFCHVNLCACDRKLVYCLKRNLRSYNPQYQYFPNILCS | soluble
20 | MVFDTHLHTLFSTDSKMNIEEAIDAGEKKNLGIIITEHIDLNYPVKGEFVFDIDKYFKEYNKYRSNKVLLGVEIGMGEEIKEQNKSINDKYEFDYVLGSIHLLNGLDLYEKTIYKSSPKKEVFEMYFKTMLACLRCHEYIDSLAHIDYISRYAAYHDGEIYYNEYSDYIDEVLKFIVDREIVIEINTRRLNKKEVCENLMPIYKRYSELGGRFVTIGSDSHYKDSIGLNFKNALKMAENCNLKPVFFEKRLMKYA | not soluble
